This note sets out measurements from US20110123544A1 (published 2011).

Where two headings read alike, the source gives them in different places.

Common to all, as to experiment: BIAcore
The target in assay [1] is T1, recombinant human interleukin 12 (p40/p35 heterodimer) (human, UniProt P29460 23-328; P29459 23-219).
T1 chain 1: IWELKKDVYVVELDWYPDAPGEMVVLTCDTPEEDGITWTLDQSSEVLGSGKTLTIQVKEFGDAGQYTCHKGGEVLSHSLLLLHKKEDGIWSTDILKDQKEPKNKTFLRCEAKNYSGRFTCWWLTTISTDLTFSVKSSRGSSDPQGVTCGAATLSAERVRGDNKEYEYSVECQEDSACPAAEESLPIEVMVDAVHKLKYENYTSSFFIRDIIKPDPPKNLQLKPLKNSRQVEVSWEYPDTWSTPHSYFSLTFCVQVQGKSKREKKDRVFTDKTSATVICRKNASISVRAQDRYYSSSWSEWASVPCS
T1 chain 2: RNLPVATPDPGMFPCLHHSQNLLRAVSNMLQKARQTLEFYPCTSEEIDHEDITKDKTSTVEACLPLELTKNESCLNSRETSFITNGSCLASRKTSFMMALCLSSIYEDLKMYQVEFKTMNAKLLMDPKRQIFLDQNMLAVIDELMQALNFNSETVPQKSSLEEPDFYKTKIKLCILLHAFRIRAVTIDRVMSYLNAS

Assay [2] deals with T2, recombinant human IL-12 (rhIL-12) (human, UniProt P29459 23-219; P29460 23-328).
T2 chain 1: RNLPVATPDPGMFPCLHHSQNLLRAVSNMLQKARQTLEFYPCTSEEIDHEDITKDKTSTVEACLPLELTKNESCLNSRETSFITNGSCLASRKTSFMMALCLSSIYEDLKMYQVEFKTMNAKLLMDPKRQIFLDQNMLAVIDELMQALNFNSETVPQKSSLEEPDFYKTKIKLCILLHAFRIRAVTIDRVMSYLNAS
T2 chain 2: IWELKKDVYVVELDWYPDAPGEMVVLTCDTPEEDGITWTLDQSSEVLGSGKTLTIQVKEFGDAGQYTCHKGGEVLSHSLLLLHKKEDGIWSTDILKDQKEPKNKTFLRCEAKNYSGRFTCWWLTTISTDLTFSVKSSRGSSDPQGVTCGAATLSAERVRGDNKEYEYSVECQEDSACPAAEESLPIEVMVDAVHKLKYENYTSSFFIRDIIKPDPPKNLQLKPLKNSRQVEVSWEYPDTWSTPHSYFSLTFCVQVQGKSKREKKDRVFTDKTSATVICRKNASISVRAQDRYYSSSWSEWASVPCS

Assay [3] concerns the target T2, recombinant human IL-12 (rhIL-12).

As to HGAHDN [Y61 H97 A], the koff in assay [1] amounted to 0.00143 s⁻¹. Regarding QSYDQGTHPALL [Y61 L93 Q], the off-rate (koff) in assay [2] was determined as 0.0003 s⁻¹. Regarding QSYDCGTHPALL [Y61 L93 C], in assay [2], the dissociation rate constant (koff) turned out to be 0.00032 s⁻¹. For FGSHDN [Y61 H95 F], in assay [1], the koff amounted to 0.00514 s⁻¹. As to QSYDWGTHPALL [Y61 L93 W], the koff in assay [2] was 0.000349 s⁻¹. TGSHDN [Y61 H95 T]: in assay [1], the koff was 0.00202 s⁻¹. QSYDRSTHPALL [Y61 L94 S]: the dissociation rate constant (koff) in assay [2] is 0.000287 s⁻¹. Take HTSHDN [Y61 H96 T]: the koff in assay [1] amounted to 0.00186 s⁻¹. As for SGGRSNIGSGTVK [Y61 L31 G], the koff in assay [3] came to 0.000366 s⁻¹. QSYDYGTHPALL [Y61 L93 Y]: the koff in assay [2] worked out at 0.000335 s⁻¹. For the molecule QSYDTGTHPALL [Y61 L93 T], the koff in assay [2] is 0.000316 s⁻¹.

With QSYGRGTHPALL [Y61 L92 G], the koff in assay [2] was found to be 0.000349 s⁻¹. As for PGSHDN [Y61 H95 P], the koff in assay [1] was found to be 0.00471 s⁻¹. Take HCSHDN [Y61 H96 C]: the koff in assay [1] was 0.000242 s⁻¹. The same measure, in the same setting: the result for HGGHDN [Y61 H97 G] reads 0.00229 s⁻¹. As for SGGRSNIGSHTVK [Y61 L31 H], the koff in assay [3] was determined as 0.000315 s⁻¹. As for QSYDRLTHPALL [Y61 L94 L], the off-rate (koff) in assay [2] amounted to 0.000244 s⁻¹. In the case of QSYDRWTHPALL [Y61 L94 W], the koff in assay [2] was found to be 0.000293 s⁻¹. As to QSYNRGTHPALL [Y61 L92 N], the koff in assay [2] came out at 0.000347 s⁻¹. As to SGGRSNIGSITVK [Y61 L31 I], the koff in assay [3] was found to be 9.7e-05 s⁻¹. On to QSYDRRTHPALL [Y61 L94 R], for which the koff in assay [2] is 0.000231 s⁻¹. For the molecule HGSIDN [Y61 H98 I], the koff in assay [1] worked out at 0.000343 s⁻¹.

Regarding QSYDAGTHPALL [Y61 L93 A], the koff in assay [2] stood at 0.00031 s⁻¹. With QSYIRGTHPALL [Y61 L92 I], in assay [2], the koff was determined as 0.000618 s⁻¹. As to AGSHDN [Y61 H95 A], the koff in assay [1] worked out at 0.0015 s⁻¹. With QSYDMGTHPALL [Y61 L93 M], the koff in assay [2] came to 0.000275 s⁻¹. Same read-out and setting: the result for QSYDRPTHPALL [Y61 L94 P] reads 0.000332 s⁻¹. Regarding SGGRSNIGSNKVK [Y61 L32 K], in assay [3], the koff was determined as 0.000318 s⁻¹.

As for QSYQRGTHPALL [Y61 L92 Q], in assay [2], the koff worked out at 0.000427 s⁻¹. Consider QSYDIGTHPALL [Y61 L93 I], for which the koff in assay [2] stood at 0.000295 s⁻¹. On to QSYDRATHPALL [Y61 L94 A], for which the koff in assay [2] was found to be 0.000526 s⁻¹. With QSYWRGTHPALL [Y61 L92 W], the koff in assay [2] worked out at 0.00072 s⁻¹. Same read-out and setting: the result for QSYDRQTHPALL [Y61 L94 Q] reads 0.00025 s⁻¹; that for QSYDRTTHPALL [Y61 L94 T], 0.000305 s⁻¹; that for QSYDVGTHPALL [Y61 L93 V], 0.000269 s⁻¹. For the molecule QSYDRVTHPALL [Y61 L94 V], the koff in assay [2] is 0.000351 s⁻¹. Turning to QSYDPGTHPALL [Y61 L93 P], the koff in assay [2] is 0.000349 s⁻¹.

Turning to QSYDDGTHPALL [Y61 L93 D], in assay [2], the koff amounted to 0.000343 s⁻¹. For QSYDRDTHPALL [Y61 L94 D], in assay [2], the koff came out at 0.000253 s⁻¹. For the molecule QSYDRHTHPALL [Y61 L94 H], in assay [2], the koff worked out at 0.000187 s⁻¹. Take HGSRDN [Y61 H98 R]: the koff in assay [1] was 0.00034 s⁻¹. As for QSYSRGTHPALL [Y61 L92 S], the koff in assay [2] was 0.000307 s⁻¹. Turning to HISHDN [Y61 H96 I], the koff in assay [1] was determined as 0.00208 s⁻¹.

In the case of QSYFRGTHPALL [Y61 L92 F], the koff in assay [2] worked out at 0.000449 s⁻¹. Turning to HGYHDN [Y61 H97 Y], the koff in assay [1] worked out at 0.00273 s⁻¹.

With SGGRSNIGSNQVK [Y61 L32 Q], in assay [3], the koff amounted to 0.00247 s⁻¹.

On to QSYTRGTHPALL [Y61 L92 T], for which the koff in assay [2] was 0.000408 s⁻¹. In the case of HGSFDN [Y61 H98 F], the koff in assay [1] is 0.000688 s⁻¹. QSYDLGTHPALL [Y61 L93 L]: the koff in assay [2] worked out at 0.0003 s⁻¹. As for SGGRSNIGYNTVK [Y61 L30 Y], in assay [3], the koff was 0.000483 s⁻¹. With HGWHDN [Y61 H97 W], the off-rate (koff) in assay [1] was found to be 0.00239 s⁻¹. In the case of SGGRSNIGNNTVK [Y61 L30 N], in assay [3], the koff turned out to be 0.000166 s⁻¹.

For the molecule QSYDRCTHPALL [Y61 L94 C], the koff in assay [2] worked out at 0.00052 s⁻¹. Take QSYYRGTHPALL [Y61 L92 Y]: in assay [2], the koff came to 0.000511 s⁻¹.

Consider SGGRSNIGSNAVK [Y61 L32 A], for which the koff in assay [3] is 0.00191 s⁻¹.

Take QSYARGTHPALL [Y61 L92 A]: the koff in assay [2] was 0.000357 s⁻¹.

Turning to QSYDRITHPALL [Y61 L94 I], the koff in assay [2] was 0.000276 s⁻¹. Turning to QSYDSGTHPALL [Y61 L93 S], in assay [2], the koff is 0.000341 s⁻¹. In the case of HGRHDN [Y61 H97 R], in assay [1], the koff was 0.00224 s⁻¹. As to QSYDGGTHPALL [Y61 L93 G], in assay [2], the koff came to 0.000392 s⁻¹.

Consider QSYDNGTHPALL [Y61 L93 N], for which the koff in assay [2] amounted to 0.000316 s⁻¹. Regarding QSYLRGTHPALL [Y61 L92 L], in assay [2], the koff was determined as 0.000728 s⁻¹. Same read-out and setting: the result for QSYCRGTHPALL [Y61 L92 C] reads 0.000453 s⁻¹.
